Measured values: paper PMC11239949

Key:
[1] = molecular target: Mucin 1 (MUC1) on MCF-7 cells; aptamer designed against the VNTR region (UniProt P15941); assay: whole-cell capture on magnetic beads (fluorescence); conditions: multivalent (apparent), 5x10^4 DAPI-stained MCF-7 cells added to 500 uL A-f-M13-MB (resuspended in PBS), 30 min, 37 C, one-site fit over aptamer concentration
[2] = molecular target: Mucin 1 (MUC1) on MCF-7 cells; aptamer designed against the VNTR region (UniProt P15941); assay: whole-cell fluorescence binding; conditions: DBCO or NH2 at 5' (which version was used as free aptamer is not stated); 5x10^4 DAPI-stained MCF-7 cells added to 500 uL A-f-M13-MB (resuspended in PBS), 30 min, 37 C; one-site fit over aptamer concentration

Chain of UniProt P15941 (P15941 whole entry): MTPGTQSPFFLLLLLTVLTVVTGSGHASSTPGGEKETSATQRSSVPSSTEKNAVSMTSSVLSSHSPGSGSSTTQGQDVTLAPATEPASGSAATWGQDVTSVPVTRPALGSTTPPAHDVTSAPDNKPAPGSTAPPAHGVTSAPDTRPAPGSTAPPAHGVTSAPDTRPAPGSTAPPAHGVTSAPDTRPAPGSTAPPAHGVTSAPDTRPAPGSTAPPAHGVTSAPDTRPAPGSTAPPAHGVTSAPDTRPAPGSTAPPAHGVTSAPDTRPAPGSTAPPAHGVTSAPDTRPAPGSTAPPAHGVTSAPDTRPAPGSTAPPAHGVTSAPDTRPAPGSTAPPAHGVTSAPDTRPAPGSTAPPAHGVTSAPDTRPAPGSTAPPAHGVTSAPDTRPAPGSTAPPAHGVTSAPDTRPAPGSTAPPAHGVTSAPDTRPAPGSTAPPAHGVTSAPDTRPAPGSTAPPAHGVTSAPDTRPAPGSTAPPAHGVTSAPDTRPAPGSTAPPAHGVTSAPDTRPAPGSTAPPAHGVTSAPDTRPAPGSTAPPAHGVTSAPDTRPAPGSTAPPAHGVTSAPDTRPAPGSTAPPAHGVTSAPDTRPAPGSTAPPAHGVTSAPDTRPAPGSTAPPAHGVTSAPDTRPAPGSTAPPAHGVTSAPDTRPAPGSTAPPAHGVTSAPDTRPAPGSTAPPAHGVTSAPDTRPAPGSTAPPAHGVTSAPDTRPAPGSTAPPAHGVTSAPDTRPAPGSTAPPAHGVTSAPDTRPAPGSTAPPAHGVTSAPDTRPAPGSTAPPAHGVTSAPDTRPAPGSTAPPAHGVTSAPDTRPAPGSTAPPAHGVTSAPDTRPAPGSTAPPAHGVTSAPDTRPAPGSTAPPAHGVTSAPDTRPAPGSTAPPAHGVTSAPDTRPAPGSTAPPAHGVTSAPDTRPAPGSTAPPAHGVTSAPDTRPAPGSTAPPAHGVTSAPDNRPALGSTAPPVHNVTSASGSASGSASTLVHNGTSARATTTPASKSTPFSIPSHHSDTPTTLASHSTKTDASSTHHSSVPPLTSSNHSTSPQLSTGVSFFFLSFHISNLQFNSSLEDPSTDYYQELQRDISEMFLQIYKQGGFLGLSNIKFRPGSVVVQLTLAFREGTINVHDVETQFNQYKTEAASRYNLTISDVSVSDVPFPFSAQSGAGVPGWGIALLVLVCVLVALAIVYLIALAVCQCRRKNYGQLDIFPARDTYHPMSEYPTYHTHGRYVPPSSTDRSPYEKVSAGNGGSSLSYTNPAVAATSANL

## TTTTTGCAGTTGATCCTTTGGATACCCTGG [DBCO-Apt (S2.2) clicked on M13 pVIII]
[1]; A-f-M13-MB, flexible phage, 5' DBCO, coupled to N3-PEG on M13 phage sidewall
  Kd: 0.00109 nM
[1]; A-r-M13-MB, PFA-treated rigid phage, 5' DBCO, coupled to N3-PEG on M13 phage sidewall
  Kd: 0.0248 nM

## TTTTTGCAGTTGATCCTTTGGATACCCTGG [NH2-Apt (S2.2) on magnetic beads]
[1]; A-MB, 5' NH2, coupled to carboxyl magnetic beads
  Kd: 21 nM

## TTTTTGCAGTTGATCCTTTGGATACCCTGG [S2.2 aptamer, free (FAM-labelled)]
[2]
  Kd: 260 nM
